Experimental data reported in patent publication US20250295737A1 (AstraZeneca / MedImmune, published 2025).
Values belong to the binder of their own block, whether it stands above or below them.

Experiments:
Assay in all cases: cell-based or functional assay
human RXFP1 = target: T1, human RXFP1 (human, UniProt Q9HBX9 1-757)
T1 sequence (looked up): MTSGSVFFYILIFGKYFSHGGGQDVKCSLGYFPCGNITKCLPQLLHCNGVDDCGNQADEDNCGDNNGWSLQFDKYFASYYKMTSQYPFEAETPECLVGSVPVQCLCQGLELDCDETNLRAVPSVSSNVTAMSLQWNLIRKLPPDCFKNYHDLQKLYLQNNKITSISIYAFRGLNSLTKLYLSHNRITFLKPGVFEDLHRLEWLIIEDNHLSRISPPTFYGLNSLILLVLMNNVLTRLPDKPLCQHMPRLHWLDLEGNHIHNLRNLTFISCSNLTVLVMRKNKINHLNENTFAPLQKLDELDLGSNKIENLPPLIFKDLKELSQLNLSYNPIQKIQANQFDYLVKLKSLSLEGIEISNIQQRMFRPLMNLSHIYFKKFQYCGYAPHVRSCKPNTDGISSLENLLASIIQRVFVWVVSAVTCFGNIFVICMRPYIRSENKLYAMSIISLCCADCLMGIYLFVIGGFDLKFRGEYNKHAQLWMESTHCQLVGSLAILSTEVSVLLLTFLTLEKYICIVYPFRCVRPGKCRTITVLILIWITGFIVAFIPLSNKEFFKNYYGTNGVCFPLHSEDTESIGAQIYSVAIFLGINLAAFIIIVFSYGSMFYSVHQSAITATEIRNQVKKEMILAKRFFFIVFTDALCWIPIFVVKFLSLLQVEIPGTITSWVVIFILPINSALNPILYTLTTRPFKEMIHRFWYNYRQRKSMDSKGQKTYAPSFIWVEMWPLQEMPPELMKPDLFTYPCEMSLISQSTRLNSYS

mouse RXFP1 = target: T2, mouse RXFP1 (mouse, UniProt Q6R6I7 1-758)
T2 sequence (looked up): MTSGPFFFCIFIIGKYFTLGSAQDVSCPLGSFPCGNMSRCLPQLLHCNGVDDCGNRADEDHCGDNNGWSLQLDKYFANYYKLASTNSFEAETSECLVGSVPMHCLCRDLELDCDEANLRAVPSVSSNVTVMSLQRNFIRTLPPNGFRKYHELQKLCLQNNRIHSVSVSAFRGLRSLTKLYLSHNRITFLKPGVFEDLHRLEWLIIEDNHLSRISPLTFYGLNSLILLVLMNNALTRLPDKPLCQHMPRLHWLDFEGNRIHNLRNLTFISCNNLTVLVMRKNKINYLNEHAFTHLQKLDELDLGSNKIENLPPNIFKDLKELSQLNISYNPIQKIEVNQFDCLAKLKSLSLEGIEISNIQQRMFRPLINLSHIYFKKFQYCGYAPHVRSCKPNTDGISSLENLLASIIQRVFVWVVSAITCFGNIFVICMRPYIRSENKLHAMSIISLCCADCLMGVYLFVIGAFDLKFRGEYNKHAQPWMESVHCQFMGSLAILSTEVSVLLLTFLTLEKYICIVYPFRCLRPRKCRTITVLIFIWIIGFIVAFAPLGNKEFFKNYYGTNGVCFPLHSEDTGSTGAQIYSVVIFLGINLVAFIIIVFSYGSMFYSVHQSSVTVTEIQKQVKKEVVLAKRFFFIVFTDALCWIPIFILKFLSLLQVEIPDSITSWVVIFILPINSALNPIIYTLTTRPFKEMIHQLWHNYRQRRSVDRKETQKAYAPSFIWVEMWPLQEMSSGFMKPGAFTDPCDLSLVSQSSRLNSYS

human RXFP2 = human RXFP2 (human, UniProt Q8WXD0 1-754)
human RXFP2, sequence (Q8WXD0 whole entry): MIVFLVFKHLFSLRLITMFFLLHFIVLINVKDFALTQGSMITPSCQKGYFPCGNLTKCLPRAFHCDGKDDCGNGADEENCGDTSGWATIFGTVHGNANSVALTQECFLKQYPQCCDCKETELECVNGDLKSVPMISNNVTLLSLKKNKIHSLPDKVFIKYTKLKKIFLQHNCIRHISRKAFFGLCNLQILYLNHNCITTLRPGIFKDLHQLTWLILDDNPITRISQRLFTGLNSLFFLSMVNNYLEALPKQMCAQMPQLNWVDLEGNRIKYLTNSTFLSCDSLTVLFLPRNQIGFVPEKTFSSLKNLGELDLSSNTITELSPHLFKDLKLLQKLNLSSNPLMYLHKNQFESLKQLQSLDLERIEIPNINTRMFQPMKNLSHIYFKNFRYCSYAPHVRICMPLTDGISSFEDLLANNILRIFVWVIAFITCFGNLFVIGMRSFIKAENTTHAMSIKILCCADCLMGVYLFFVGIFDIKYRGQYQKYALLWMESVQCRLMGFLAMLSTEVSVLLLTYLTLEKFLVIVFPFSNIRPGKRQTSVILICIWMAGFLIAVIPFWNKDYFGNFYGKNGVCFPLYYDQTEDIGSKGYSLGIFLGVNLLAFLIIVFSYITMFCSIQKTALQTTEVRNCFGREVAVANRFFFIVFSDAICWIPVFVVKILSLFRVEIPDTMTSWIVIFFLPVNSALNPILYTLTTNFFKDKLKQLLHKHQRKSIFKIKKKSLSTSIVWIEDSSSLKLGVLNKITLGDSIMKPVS

B2: RELAX0084 (Fc fusion)
chain 1: DKTHTCPPCPAPEFEGGPSVFLFPPKPKDTLMISRTPEVTCVVVDVSHEDPEVKFNWYVDGVEVHNAKTKPREEQYNSTYRVVSVLTVLHQDWLNGKEYKCKVSNKALPASIEKTISKAKGQPREPQVYTLPPCREEMTKNQVSLWCLVKGFYPSDIAVEWESNGQPENNYKTTPPVLDSDGSFFLYSKLTVDKSRWQQGNVFSCSVMHEALHNHYTQKSLSLSPGAPAPAPAPAPAPAPAPAPAGSQLYSALANKCCHVGCTKRSLARFC
chain 2: DKTHTCPPCPAPEFEGGPSVFLFPPKPKDTLMISRTPEVTCVVVDVSHEDPEVKFNWYVDGVEVHNAKTKPREEQYNSTYRVVSVLTVLHQDWLNGKEYKCKVSNKALPASIEKTISKAKGQPREPQVCTLPPSREEMTKNQVSLSCAVKGFYPSDIAVEWESNGQPENNYKTTPPVLDSDGSFFLVSKLTVDKSRWQQGNVFSCSVMHEALHNHYTQKSLSLSPGGGGGSGGGGSGGGGSGGGGGSSWMEEVIKLCGRELVRAQIAICGMSTWS
EC50 hRXFP1 (M), cAMP HTRF assay (human RXFP1): 5.34e-11 M | EC50 mRXFP1 (M), cAMP HTRF assay (mouse RXFP1): 3.48e-11 M | EC50 hRXFP2 (M), cAMP HTRF assay (human RXFP2): 1.2e-08 M

B3: RELAX0086 (Fc fusion)
chain 1: DKTHTCPPCPAPEFEGGPSVFLFPPKPKDTLMISRTPEVTCVVVDVSHEDPEVKFNWYVDGVEVHNAKTKPREEQYNSTYRVVSVLTVLHQDWLNGKEYKCKVSNKALPASIEKTISKAKGQPREPQVYTLPPCREEMTKNQVSLWCLVKGFYPSDIAVEWESNGQPENNYKTTPPVLDSDGSFFLYSKLTVDKSRWQQGNVFSCSVMHEALHNHYTQKSLSLSPGGGGGSGGGGSGGGGGSQLYSALANKCCHVGCTKRSLARFC
chain 2: B2 chain 2
EC50 hRXFP1 (M), cAMP HTRF assay (human RXFP1): 4.49e-11 M | EC50 mRXFP1 (M), cAMP HTRF assay (mouse RXFP1): 2.68e-11 M | EC50 hRXFP2 (M), cAMP HTRF assay (human RXFP2): 4.88e-08 M

B4: RELAX0085 (Fc fusion)
chain 1: DKTHTCPPCPAPEFEGGPSVFLFPPKPKDTLMISRTPEVTCVVVDVSHEDPEVKFNWYVDGVEVHNAKTKPREEQYNSTYRVVSVLTVLHQDWLNGKEYKCKVSNKALPASIEKTISKAKGQPREPQVYTLPPCREEMTKNQVSLWCLVKGFYPSDIAVEWESNGQPENNYKTTPPVLDSDGSFFLYSKLTVDKSRWQQGNVFSCSVMHEALHNHYTQKSLSLSPGGGGGSGGGGSGGGGSGGGGGSQLYSALANKCCHVGCTKRSLARFC
chain 2: DKTHTCPPCPAPEFEGGPSVFLFPPKPKDTLMISRTPEVTCVVVDVSHEDPEVKFNWYVDGVEVHNAKTKPREEQYNSTYRVVSVLTVLHQDWLNGKEYKCKVSNKALPASIEKTISKAKGQPREPQVCTLPPSREEMTKNQVSLSCAVKGFYPSDIAVEWESNGQPENNYKTTPPVLDSDGSFFLVSKLTVDKSRWQQGNVFSCSVMHEALHNHYTQKSLSLSPGAPAPAPAPAPAPAPAPAPAGSSWMEEVIKLCGRELVRAQIAICGMSTWS
EC50 hRXFP1 (M), cAMP HTRF assay (human RXFP1): 6.37e-11 M | EC50 mRXFP1 (M), cAMP HTRF assay (mouse RXFP1): 3.09e-11 M | EC50 hRXFP2 (M), cAMP HTRF assay (human RXFP2): 4.67e-08 M

B5: RELAX0105 (Fc fusion)
chain 1: B3 chain 1
chain 2: B4 chain 2
EC50 hRXFP1 (M), cAMP HTRF assay (human RXFP1): 7.12e-11 M | EC50 mRXFP1 (M), cAMP HTRF assay (mouse RXFP1): 1.49e-11 M | EC50 hRXFP2 (M), cAMP HTRF assay (human RXFP2): 3.33e-08 M

B8: RELAX0087 (Fc fusion)
chain 1: B4 chain 1
chain 2: DKTHTCPPCPAPEFEGGPSVFLFPPKPKDTLMISRTPEVTCVVVDVSHEDPEVKFNWYVDGVEVHNAKTKPREEQYNSTYRVVSVLTVLHQDWLNGKEYKCKVSNKALPASIEKTISKAKGQPREPQVCTLPPSREEMTKNQVSLSCAVKGFYPSDIAVEWESNGQPENNYKTTPPVLDSDGSFFLVSKLTVDKSRWQQGNVFSCSVMHEALHNHYTQKSLSLSPGGGGGSGGGGSGGGGGSSWMEEVIKLCGRELVRAQIAICGMSTWS
EC50 hRXFP1 (M), cAMP HTRF assay (human RXFP1): 4.89e-11 M | EC50 mRXFP1 (M), cAMP HTRF assay (mouse RXFP1): 3.48e-11 M | EC50 hRXFP2 (M), cAMP HTRF assay (human RXFP2): 3.63e-08 M

Results, then the binder that gave them:

EC50 hRXFP1 (M), cAMP HTRF assay (human RXFP1): 1.88e-09 M | EC50 mRXFP1 (M), cAMP HTRF assay (mouse RXFP1): 1.11e-09 M | EC50 hRXFP2 (M), cAMP HTRF assay (human RXFP2): > 6.07e-08 M
B1: RELAX0110 (Fc fusion)
chain 1: DKTHTCPPCPAPEFEGGPSVFLFPPKPKDTLMISRTPEVTCVVVDVSHEDPEVKFNWYVDGVEVHNAKTKPREEQYNSTYRVVSVLTVLHQDWLNGKEYKCKVSNKALPASIEKTISKAKGQPREPQVYTLPPCREEMTKNQVSLWCLVKGFYPSDIAVEWESNGQPENNYKTTPPVLDSDGSFFLYSKLTVDKSRWQQGNVFSCSVMHEALHNHYTQKSLSLSPGGGGGSGGGGGSQLYSALANKCCHVGCTKRSLARFC
chain 2: DKTHTCPPCPAPEFEGGPSVFLFPPKPKDTLMISRTPEVTCVVVDVSHEDPEVKFNWYVDGVEVHNAKTKPREEQYNSTYRVVSVLTVLHQDWLNGKEYKCKVSNKALPASIEKTISKAKGQPREPQVYTLPPCREEMTKNQVSLWCLVKGFYPSDIAVEWESNGQPENNYKTTPPVLDSDGSFFLYSKLTVDKSRWQQGNVFSCSVMHEALHNHYTQKSLSLSPGAAPAPAPAPAPAPAGSSWMEEVIKLCGRELVRAQIAICGMSTWS

EC50 hRXFP1 (M), cAMP HTRF assay (human RXFP1): 8.09e-11 M | EC50 mRXFP1 (M), cAMP HTRF assay (mouse RXFP1): 3.87e-11 M | EC50 hRXFP2 (M), cAMP HTRF assay (human RXFP2): 1.22e-07 M
B6: RELAX0107 (Fc fusion)
chain 1: DKTHTCPPCPAPEFEGGPSVFLFPPKPKDTLMISRTPEVTCVVVDVSHEDPEVKFNWYVDGVEVHNAKTKPREEQYNSTYRVVSVLTVLHQDWLNGKEYKCKVSNKALPASIEKTISKAKGQPREPQVYTLPPCREEMTKNQVSLWCLVKGFYPSDIAVEWESNGQPENNYKTTPPVLDSDGSFFLYSKLTVDKSRWQQGNVFSCSVMHEALHNHYTQKSLSLSPGGGGGGSQLYSALANKCCHVGCTKRSLARFC
chain 2: B4 chain 2

EC50 hRXFP1 (M), cAMP HTRF assay (human RXFP1): 6.96e-11 M | EC50 mRXFP1 (M), cAMP HTRF assay (mouse RXFP1): 1.98e-11 M | EC50 hRXFP2 (M), cAMP HTRF assay (human RXFP2): 4.94e-08 M
B7: RELAX0106 (Fc fusion)
chain 1: B1 chain 1
chain 2: B4 chain 2
